# Measurements as given in article PMC7771633 (Cell, 2020).
# Tests used:
# [1] = biological target: full-length HeV-RBP expressed on the surface of mammalian cells (Hendra virus, UniProt O89343); assay: cell-based or functional assay
# [2] = biological target: full-length NiVM RBP expressed on the surface of mammalian cells (Nipah virus, strain Malaysia, UniProt Q9IH62); assay: cell-based or functional assay
# [3] = biological target: T1, HeV-RBP head domain (Hendra virus receptor binding protein, residues 185 – 604) (Hendra virus, UniProt O89343); assay: ELISA
# [4] = biological target: T1, HeV-RBP head domain (Hendra virus …); assay: BLI
# [5] = biological target: full-length NiVB RBP expressed on the surface of mammalian cells (Nipah virus, strain Bangladesh, UniProt Q4VCP5, strain); assay: flow cytometry on cells
# T1 sequence (O89343 185-604): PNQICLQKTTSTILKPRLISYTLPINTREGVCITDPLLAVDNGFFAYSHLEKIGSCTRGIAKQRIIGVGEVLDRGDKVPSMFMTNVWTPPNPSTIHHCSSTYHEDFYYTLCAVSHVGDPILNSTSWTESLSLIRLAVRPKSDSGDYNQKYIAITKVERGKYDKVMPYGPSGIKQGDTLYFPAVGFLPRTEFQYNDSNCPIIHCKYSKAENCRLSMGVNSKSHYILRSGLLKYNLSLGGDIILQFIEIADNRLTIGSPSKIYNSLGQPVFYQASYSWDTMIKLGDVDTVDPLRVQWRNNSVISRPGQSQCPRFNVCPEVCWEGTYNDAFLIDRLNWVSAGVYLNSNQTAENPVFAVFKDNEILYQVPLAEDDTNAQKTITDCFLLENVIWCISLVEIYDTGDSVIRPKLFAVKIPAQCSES
# full-length NiVM RBP expressed on the surface of mammalian cells, sequence (Q9IH62 whole entry, the tested form may be a part): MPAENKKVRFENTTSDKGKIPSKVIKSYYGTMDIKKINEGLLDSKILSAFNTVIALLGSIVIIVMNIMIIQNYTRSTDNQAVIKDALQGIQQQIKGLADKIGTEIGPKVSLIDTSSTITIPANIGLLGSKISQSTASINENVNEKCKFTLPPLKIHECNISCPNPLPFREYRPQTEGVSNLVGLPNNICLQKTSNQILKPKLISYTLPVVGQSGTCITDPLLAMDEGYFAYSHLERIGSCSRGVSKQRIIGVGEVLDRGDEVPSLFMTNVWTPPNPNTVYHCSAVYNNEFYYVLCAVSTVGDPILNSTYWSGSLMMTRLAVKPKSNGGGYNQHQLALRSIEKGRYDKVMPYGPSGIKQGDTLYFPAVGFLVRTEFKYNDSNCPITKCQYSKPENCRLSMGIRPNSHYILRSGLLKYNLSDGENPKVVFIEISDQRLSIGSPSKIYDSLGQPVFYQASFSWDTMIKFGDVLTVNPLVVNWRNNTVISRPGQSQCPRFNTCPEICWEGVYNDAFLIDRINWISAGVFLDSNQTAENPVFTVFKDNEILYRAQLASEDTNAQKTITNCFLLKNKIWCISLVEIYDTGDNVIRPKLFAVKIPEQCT
# full-length HeV-RBP expressed on the surface of mammalian cells, sequence (O89343 whole entry): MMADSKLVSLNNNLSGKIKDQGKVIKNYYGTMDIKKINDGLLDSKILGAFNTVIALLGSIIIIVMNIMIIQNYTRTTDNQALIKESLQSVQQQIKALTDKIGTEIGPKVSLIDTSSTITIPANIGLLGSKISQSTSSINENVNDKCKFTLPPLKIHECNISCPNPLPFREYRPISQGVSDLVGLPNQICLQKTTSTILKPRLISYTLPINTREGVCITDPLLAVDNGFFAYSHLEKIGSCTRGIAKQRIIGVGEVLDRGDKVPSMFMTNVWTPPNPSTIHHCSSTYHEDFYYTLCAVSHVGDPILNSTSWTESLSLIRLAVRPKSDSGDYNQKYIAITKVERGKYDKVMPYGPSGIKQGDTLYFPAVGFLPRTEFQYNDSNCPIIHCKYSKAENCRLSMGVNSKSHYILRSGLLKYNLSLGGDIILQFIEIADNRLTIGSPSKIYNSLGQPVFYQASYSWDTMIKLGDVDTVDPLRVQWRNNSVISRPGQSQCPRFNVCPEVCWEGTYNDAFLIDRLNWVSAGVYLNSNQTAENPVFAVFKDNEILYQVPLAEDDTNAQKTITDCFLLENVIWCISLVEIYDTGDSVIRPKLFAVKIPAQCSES
Binder,IC50 of neutralization of HeV (plaque reduction assay) [1],IC50 of neutralization of NiVM (plaque reduction assay) [2],Area under the curve [3],Kd [4],binding result [5]
"HENV-32, human monoclonal antibody, IgG (antibody, V domains shown) VH: QVQLVQSGAEVKKPGSSVKVSCKVSGGIFNRETINWVRQAPGQGLEWMGRITPIVDVPNYPRKFRGRVTITADKSTSTVYMELSGLRFEDTAIYFCARFRGHNYFDPWGQGTLVTVSS VL: SYVLTQPPSVSVAPGQTARITCGGNNIGGKSVHWYQQKPGQAPVLVVYDDRDRPSGIPERFSGSNSGDTASLTISRVDAGDEADYFCQVWDNASDEAVFGGGTKLTVL",0.27 µg/mL,0.31 µg/mL,3.71,,
"HENV-32 Fab (Fab, V domains shown) VH: QVQLVQSGAEVKKPGSSVKVSCKVSGGIFNRETINWVRQAPGQGLEWMGRITPIVDVPNYPRKFRGRVTITADKSTSTVYMELSGLRFEDTAIYFCARFRGHNYFDPWGQGTLVTVSS VL: SYVLTQPPSVSVAPGQTARITCGGNNIGGKSVHWYQQKPGQAPVLVVYDDRDRPSGIPERFSGSNSGDTASLTISRVDAGDEADYFCQVWDNASDEAVFGGGTKLTVL",,,,2.1 nM,
"HENV-26, human monoclonal antibody, IgG (antibody, V domains shown) VH: EVQLLESGGGLIQPGGSLRLSCAASGFTFSRFTMSWVRQPPGKGPEWVSGISGSGGHTYYADSVKGRFTISRDNSKNTLYLQMNSLKAEDTAVYYCAKDGFVGQQLMRRGPWWFDPWGQGTLVTVSS VL: SYVLTQPPSVSVAPGQTARISCGGNNIGNKGVHWYQQKPGQAPVVVVYDDSDRPSGIPERFSGSNSGNTATLTISRVEAGDEADYYCQVWDSSSDHVVFGGGTKLTVL",,,5.39,,binds
